Results as given in patent US12344663B2, “Anti-C3 antibodies and antigen-binding fragments thereof and their uses for treating eye or ocular diseases” (CDR-Life AG, priority 2021, dated 2025).

Experiments:
[1] = Thermal stability by differential scanning fluorimetry (DSF); type: physicochemical; details: for Melting temperature: DSF, Example 4
Source text: Differential scanning fluorimetry (DSF) measures protein unfolding by monitory changes in fluorescence as a function of temperature.
The temperature of protein unfolding (Tm) is tied to the stability of antibodies, specifically to aggregation during storage and long-term stability of the therapeutic product. The thermal transitions of monoclonal antibody CH2 and CH3 domains are typically invariant for different antibodies within an isotype, with the CH2 domain unfolding prior to the CH3 domain.

[2] = molecular target: human C3 (Homo sapiens, UniProt P01024); experiment: SPR (Biacore T100) binding to human C3; details: C3 and C3b; in words
Sequence of human C3 (P01024 23-1663): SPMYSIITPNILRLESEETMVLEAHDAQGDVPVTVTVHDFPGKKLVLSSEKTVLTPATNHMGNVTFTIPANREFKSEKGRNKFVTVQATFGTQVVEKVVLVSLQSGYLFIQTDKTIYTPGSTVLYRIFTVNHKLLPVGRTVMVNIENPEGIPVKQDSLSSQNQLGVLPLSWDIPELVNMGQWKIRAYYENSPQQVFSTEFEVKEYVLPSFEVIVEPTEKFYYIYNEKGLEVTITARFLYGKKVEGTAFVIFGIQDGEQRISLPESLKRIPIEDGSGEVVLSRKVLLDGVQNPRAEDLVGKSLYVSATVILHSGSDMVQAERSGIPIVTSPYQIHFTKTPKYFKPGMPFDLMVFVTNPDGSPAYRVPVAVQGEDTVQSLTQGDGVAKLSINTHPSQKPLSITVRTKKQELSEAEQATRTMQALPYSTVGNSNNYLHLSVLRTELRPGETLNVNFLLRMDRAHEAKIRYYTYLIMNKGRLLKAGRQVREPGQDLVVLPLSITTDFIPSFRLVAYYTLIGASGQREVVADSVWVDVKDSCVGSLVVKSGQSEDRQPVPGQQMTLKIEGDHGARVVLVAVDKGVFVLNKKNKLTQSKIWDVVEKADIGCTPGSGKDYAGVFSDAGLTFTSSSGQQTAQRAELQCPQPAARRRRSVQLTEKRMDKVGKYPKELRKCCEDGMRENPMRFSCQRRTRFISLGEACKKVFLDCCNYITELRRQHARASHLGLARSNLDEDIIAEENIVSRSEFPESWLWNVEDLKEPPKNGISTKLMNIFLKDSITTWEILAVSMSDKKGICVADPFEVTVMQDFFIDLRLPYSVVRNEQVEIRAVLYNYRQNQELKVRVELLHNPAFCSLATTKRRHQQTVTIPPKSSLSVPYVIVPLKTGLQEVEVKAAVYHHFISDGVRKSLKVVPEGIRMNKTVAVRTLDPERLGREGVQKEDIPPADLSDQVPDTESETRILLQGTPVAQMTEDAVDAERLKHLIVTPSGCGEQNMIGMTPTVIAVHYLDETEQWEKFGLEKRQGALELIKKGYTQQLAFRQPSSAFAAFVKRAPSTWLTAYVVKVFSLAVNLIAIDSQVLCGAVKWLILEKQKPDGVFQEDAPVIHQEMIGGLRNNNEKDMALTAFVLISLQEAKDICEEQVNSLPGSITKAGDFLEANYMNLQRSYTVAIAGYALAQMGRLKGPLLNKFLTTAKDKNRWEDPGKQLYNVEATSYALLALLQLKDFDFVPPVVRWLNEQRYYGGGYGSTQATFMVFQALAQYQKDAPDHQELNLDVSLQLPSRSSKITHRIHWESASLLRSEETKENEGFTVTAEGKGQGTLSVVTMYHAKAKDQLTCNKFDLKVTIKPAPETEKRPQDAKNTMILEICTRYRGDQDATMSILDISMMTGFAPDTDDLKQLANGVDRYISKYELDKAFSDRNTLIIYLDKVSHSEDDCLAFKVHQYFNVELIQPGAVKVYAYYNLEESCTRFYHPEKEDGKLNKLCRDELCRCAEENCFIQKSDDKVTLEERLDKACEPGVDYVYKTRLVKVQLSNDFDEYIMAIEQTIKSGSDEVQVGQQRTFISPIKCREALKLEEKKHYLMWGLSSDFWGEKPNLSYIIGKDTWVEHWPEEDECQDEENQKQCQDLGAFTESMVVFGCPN
Method: The kinetic parameters of the candidates are determined using a surface plasmon resonance (SPR) and Biacore T100 device. C3 and different variants thereof (Table 19) are immobilized as a ligand on a HC30M SPR sensor chip (XanTec bionanalytics, Germany) using EDC/[…] linking chemistry. Five increasing concentrations of each molecule (analyte) are consecutively injected using the single cycle kinetics (SCK) mode to determine the kinetic parameters. Regeneration between the candidates is done with 10 mM glycine*HCl, 2 M NaCl, pH 3.5. The data is fitted to a 1:1 Langmuir binding model and the kinetic parameters of on-rate (ka), off-rate (kd), and affinity […] were determined.

[3] = tested on: Alternative Pathway; experiment: WEISLAB Complement system Screen, alternative pathway MAC (C5b-C9) formation; type: biochemical, human; details: single dose of 2 μM; AP-dependent MAC formation
Method: (§1) To identify antibodies that block all 3 complement pathways, antibodies are screened using an enzyme immunoassay for the qualitative determination of functional classical, lectin and alternative complement pathways in human serum using the WEISLAB® Complement system Screen (Svar Life Science AB, Malmö, Sweden).
(§2) To monitor inhibition of the complement system in human serum, the scFv of the invention or the comparator molecules are tested using an enzyme immunoassay for the qualitative determination of functional classical, lectin and alternative complement pathways in human serum using the WEISLAB® Complement system Screen (Svar Life Science AB, Malmö, Sweden), following the supplier's instructions. The amount of C5b-C9 neoantigen generated is proportional to the functional activity of complement pathways. The scFv of the invention and the comparator molecules are tested in a concentration response curve and the IC50 for the inhibition is calculated using the GraphPadPrism software and a non-linear, 4 parameters curve regression.

[4] = tested on: Lectin Pathway; experiment: WEISLAB Complement system Screen, lectin pathway MAC (C5b-C9) formation; type: biochemical, human; details: single dose of 2 μM; LP-dependent MAC formation
Method: as §1, §2

[5] = tested on: Classical Pathway; experiment: WEISLAB Complement system Screen, classical pathway MAC (C5b-C9) formation; type: biochemical, human; details: single dose of 2 μM; CP-dependent MAC formation
Method: as §1, §2

[6] = 40 nmol IVT, scFv versus Fab (ranibizumab); in words; cited from earlier work
[7] = Concentration-dependent monomeric stability study at 37° C.; type: physicochemical; details: for Loss in monomeric content after 2 weeks of incubation at 37° C.: Clone XIII at 150 mg/mL, Clone XIV at 50 mg/mL; for Loss in monomeric content with concentration: Clone XIII concentrated to 150 mg/mL, Clone XIV to 50 mg/mL

Row | Molecule | Melting temperature [1] [°C] | Loss in monomeric content after 2 weeks of incubation at 37° C. [7] [%] | Loss in monomeric content with concentration [7] | also measured
1 | Clone VI: Clone V with additional rabbit residues replaced by germline, SEQ ID NO: 34 (protein, ScFv) scFv: MQLVLTQSPSASASLGASVKLTCTLSSAHKTYTIDWYQQQPEKGPRYLMQLKSDGSYTKGTGVPDRFSGSSSGAERYLTISSLQSEDEADYYCGTDYGGGYVFGGGTKLTVLGGGGGSGGGGSGGGGSGGGGSQVQVVESGGGSVQPGRSLRLSCAASGFSLYNYAMNWVRQAPGKGLEWIGIINTDGNTNYASWAKGRFTISTDNSKNTLYLQMNSLRAEDTASYYCARAVGYHHHALDPWGQGTSVTVSS | – | – | – | Increase of thermal stability of the construct ([1]; versus preceding variant): 11.7 °C; Binding affinity to C3 and C3b compared to parental molecule Clone IV [2]: comparable to the parental molecule
2 | Clone IV: rabbit-derived parental anti-C3 antibody, SEQ ID NO: 32 (protein, scFv) QSVKESGGRLVTPGTPLTLTCTVSGFSLYNYAMNWVRQAPGKGLEWIGIINTDGNTNYASWAKGRFTISTTSSTTVDLKITSPTTEDTATYFCPRAVGYHHHALDPWGPGTLVTVSSGGGGSGGGGSGGGGSGGGGASELVLTQSPSVSAALGASAKLTCTLSSAHKTYTIDWYQQQQGEAPRYLMQLKSDGSYTKGTGVPDRFSGSSSGADRYLIIPSVQADDEADYYCGTDYGGGYVFGGGTQLTVTG | – | – | – | Residual alternative pathway complement activity with Clone IV [%] [3]: −0.1 ± 0.2%; Residual lectin pathway complement activity with Clone IV [%] [4]: 0.5 ± 0.9%; Residual classical pathway complement activity with Clone IV [5]: 2.9 ± 0.0%
3 | Beovu: comparator in EpiMatrix table; brolucizumab is a scFv (antibody, chains of the INN, looked up, V domains shown, scFv, brolucizumab is a scFv) VH: EVQLVESGGGLVQPGGSLRLSCTASGFSLTDYYYMTWVRQAPGKGLEWVGFIDPDDDPYYATWAKGRFTISRDNSKNTLYLQMNSLRAEDTAVYYCAGGDHNSGWGLDIWGQGTLVTVSS VL: EIVMTQSPSTLSASVGDRVIITCQASEIIHSWLAWYQQKPGKAPKLLIYLASTLASGVPSRFSGSGSGAEFTLTISSLQPDDFATYYCQNVYLASTNGANFGQGTKLTVL | – | – | – | Retinal penetration after equimolar intravitreal injection [6]: improved retinal penetration
4 | Clone XIII: scFv combining affinity maturation substitutions and disulfide bond stabilization, SEQ ID NO: 41 (protein, ScFv) scFv: MQLVLTQSPSASASLGASVKLTCTLSSAHKTYTIDWYQQQPEKCPRYLMQLKSEGSYTKGTGVPDRFSGSSSGAERYLTISSLQSEDEADYYCGTEGVGGYVFGGGTKLTVLGGGGGSGGGGSGGGGSGGGGSQVQVVESGGGSVQPGRSLRLSCAVSGFSLYNYAMNWVRQAPGKGLEWIGIINVGGGTNYASWAKGRFTISTDNSKNTVYLQMNSLRAEDTASYYCARAVGYHHARLDPWGCGTSVTVSS | 67.7 | 2.2 | no loss | –
5 | Clone XIV: scFv combining affinity maturation substitutions and disulfide bond stabilization, SEQ ID NO: 42 (protein, ScFv) scFv: MQLVLTQSPSASASLGASVKLTCTLSSAHKTYTIDWYQQQPEKCPRYLMQLKSEGSYTKGTGVPDRFSGSSSGAERYLTISSLQSEDEADYYCGTEGVGGYVFGGGTKLTVLGGGGGSGGGGSGGGGSGGGGSQVQVVESGGGSVQPGRSLRLSCAVSGFSLYNYAMNWVRQAPGKGLEWIGIINVGGGTNYASWAKGRFTISTDNSKNTVYLQMNSLRAEDTASYYCARAVGYHHSRLDPWGCGTSVTVSS | 67.2 | 2.3 | 1.6% | –
